Measured values reported in a protein production outcome set (Wang et al. 2014).

Test: label from the status in PepcDB records

Row | Sequence | protein production
1 | MSLTMVSEVQPVSPASLDAPLENAVEIIETVISSLHQGDAPLVGQTDSGKIWMFRYGSAEVFVQLSGHTEEDFLTIWSPVLPLPVADELALYRKLLTLNWLTTFEAHFAIAEEQVQVVASRTLGGITAGEISRLITIVATLADDYDDALRAEFKGEGHHHHHH | not failed
2 | DRAVKEFEANGGSSAANGGGAKKRAKPAKKVAKKSKKEESDEDDDDESE | failed
3 | MPMPMACWCRRSRCRWMAPADRSDRKPEGDAVTLKRWLSGGVLMVASLVATTHAAELPAGMQQFDVQMERVRKQFDVPGIAVAIVKDGQVVLERGYGVRETGKPAPVQADTLFAIASNTKAFTAASLSILADEGKLSLEDKVIDHLPWFRMSDPYVGGEMRIRDLLAHRSGLSLGAGDLLFWPTTSYTTEEVVQRLAKVPLKGGFRDRYAYDNILYAVAQKVIEQVSGQSYEAFLQQRIFAPVGMRGTRFNADHLQAGDHAAVGHAKYDFTELRTVAPLTWSNNSGAGGIYSSAHDMALWMNVQLAGGILPDGKPLFSAKRQHEMWSMITPIPIGEVQLPEFAAARPNFAGYGEGWSLSDYRGHRMVWHTGGWPGMVSRLTLLPDQKLGVVVLTNQEVGAAFNAVTFQVLDAFLRVPPTDWTAAYAKLVEKADSDADASWKKHQDARAARSTPSLPLRSYAATYRDPWYGDVVIVQDGKRLRLQFAKTAQLVGTLEHWQHDSFIVRWDDRSLNADAFVNFLLTPDGAVREMRMEPISPLTDFSFDFQDLVLTPVPTETAAGK | failed
4 | MGVNMEVCVVKPTSVDDSREITETLLAGRTVILNLEGMDLEIAQRIIDFISGATFAISGNLQKISNYIFLVTPTNVDILEHHHHHH | failed
5 | MGANLNSAYAAGVKIAIVMGSKSDWATMQFAADVLTTLNVPFHVEVVSAHRTPDRLFSFAEQAEANGLHVIIAGAGGAAHLPGMLAAKTLVPVLGVPVQSAALSGVDSLYSIVQMPRGIPVGTLAIGKAGAANAALLAAQILALHDTELAGRLAHWRQSQTDDVLDNPDPREEA | not failed
6 | MFMIPAWLWIGLIAFALAFVCNRLSPRDLRWFNRLRRPSWLTFEWAIPFIWIAIFIAGAISATLAWNATADPGHRWGLMVGYLLLELTVMAYTPVMCKLRSLRVGSIIGATGFFVGLALVIAVSQVSTTAFGFLVPFLLWSPIGTYVTWAMIPLNPGEI | failed
7 | MTNWKPLVSVITPSYNARDYIEDTVHSVLDQSHPHWEMIIVDDCSTDGTRDILQQYEKIDERIHVVYLEENSGAAVARNKALERAQGRYVAFLDSDDKWKKDKLEKQLEFMMERSCAFSFTGYSLMAQDGTPLDKFIHAPESLTYDDALKNTIIGCLTVMIDREQTGQIQMPNIRTRQDLATWLSLLKKGFTAYGMNECLAEYRLVNNSISSNKWKAAKKTWFVYREIERLHFMKATWCFVQYAKNAVKKRLLEHHHHHH | not failed
8 | MNQNNHFRLTLSTLLQQCQQDITSLPTAMRAVFSWQRGLNELKTLRRTTKLMMSTMLIVTIIGFILGRDYSLHGWIGLLTGITVVINLILVDQGRLTNYSWGIIACAAWLTTAITNRLIGDIASQSFYLIMQFVGITVWHRKMAAQPDASELTGRKLSKLAGCAWFALAVLVYAIVLHFSKQLNGNQIYLDATLLPLGIVGSVLMVNGYRSQWVAWITLDVINVIIWFNQLKGFSPAAASMLALQLVMLANALYGAYLWFFGQNTQQDKLDTH | failed
9 | MKLVCISDTHSLHRRIPEIPDGDVLIHAGDSLGQGSLENIEDLNDWLGTLPHRHKIVIAGNHDWAFQEMPGEARTALSNAVYLEDSGVEIEGNRFWGSPWTPTFMDWAFMLERGEPLYQKWQLVPDNTDVLITHGPPKGIGDEANLGFKCQNVGCVDLLARIHQLSLKAHIFGHIHEGYGEYLRGKTRLINASTCTARYEPRNAPIVVDVLEHHHHHH | failed
10 | MKRAAAKHLIERYYHQLTEGCGNEACTNEFCASCPTFLRMDNNAAAIKALELYKINAKLCDPHP | not failed
11 | MDRIDAMKVFVAAIDEGSLAGAARRLKRSPTAVSRALSFLEAHVGVELLHRTTRTLKLSEAGQRYAAACRRVLTDLEEADMLAGGERSAPRGMLTISSPPILGEEILRPILDDFLDLYPTVSVRLLLLDRFVNLVDEGVDIALRIGQLADSSLISTRLGGDVRRVVVASPRYLANHPRIEEPADLDKHQILAFTNFGLESWSFTPAKGSSVPRTIQFTPRCIVNSVRAAAASAAAGRGLTRLYSYHVAEYVRDGRLEIVLADAEHPPLPAHLIAPQGRMSVPKVRAFVDFAAPRLRSEFARMAAEAGTLT | failed
12 | MTGTPCPDFTLPGTAGADFQLSSSRKPLVIYFYPKDNTPGCTNESMAFRDLHPEFAALGAEIVGISRDSLKSHQNFKAKLELPFELLSDSEETACSLFGVIKMKNMYGKQVRGIERSTFVIDASGKVSREWRGVKVPGHAEEVLAYVKTLK | failed
13 | MSLKKVVIIGGGAAGMSAASRVKRLKPEWDVKVFEATEWVSHAPCGIPYVVEGLSTPDKLMYYPPEVFIKKRGIDLHLNAEVIEVDTGYVRVRENGGEKSYEWDYLVFANGASPQVPAIEGVNLKGVFTADLPPDALAIREYMEKYKVENVVIIGGGYIGIEMAEAFAAQGKNVTMIVRGERVLRRSFDKEVTDILEEKLKKHVNLRLQEITMKIEGEERVEKVVTDAGEYKAELVILATGIKPNIELAKQLGVRIGETGAIWTNEKMQTSVENVYAAGDVAETRHVITGRRVWVPLAPAGNKMGYVAGSNIAGKELHFPGVLGTAVTKFMDVEIGKTGLTEMEALKEGYDVRTAFIKASTRPHYYPGGREIWLKGVVDNETNRLLGVQVVGSDILPRIDTAAAMLMAGFTTKDAFFTDLAYAPPFAPVWDPLIVLARVLKEGHHHHHH | not failed
14 | MTNNTDIKNQTNPMSGDLLRQIIRLGFPVAIQSALVAILALADVLMVSDFGKEATAAVGIASKWHFVAIMIMAGLASANGTLVAQYWGRNDAVSAKTVTGIAIRFGLKVLIPVTLIITLGSELIMRLQTSDTRVIELGATYLWYAFPVLLLTHIVIVLEASMRSSGDTVTPLLMGAMTIVLNIGLNFWLIKGGFGIPAMGVAGAAFATTISRLFQVLAMIAYMRWRKHWLLEVKEGSERPSLWLSYRRLALPMTLGALLWAIGTMVYQMIFGHMGTTELAVFSMLGPFESLCYSIFFGISVACSVMIGQSLGRDAFEQAEHMAKFFIKAVFVFGISIGALLLLNRELIIAALNLDNPELYPLAAPAVMILCCAIWLRMLNMIIINGIIRAGGDNVFCLRMDFIAMWMTGLPLCAIAAFVLGWEFKYVYALMIAEEVVKLALCYRRYTQKYWIKNLTVVTTS | not failed
15 | MSLIRWLVERWLEFMGNHPFLFGTLAILIVLFFIFEGQRNGRKISPQSLGILIKAKNAQLIDLRDAKDFREGHISGSRNIPYSQITSHVDELKASERPLVFICNLGQVAGSALQKIGHADSYRLDGGISNWKAQGLPLVKAKTKA | failed
16 | MANAKPVCSLFHSTFHDGIASVFHRSFSFPLLLILLIAFSGSGYANSSKETRAAARSESAGKTVSSRWAKGRLLVIPRAGLTAMEFDKATKPYGVKSRRRLNGLNAHVYELPDGVDEVKVLDKLKKDRRFKAVELDRLVEPAQVVTDPAFGNSWALPKIQAPAAWDIATGDGITIAILDTGVDGTHPDLAANMLPGWNAYDNNTDTSDIYGHGTKVAGTAAAVANNGAGSSGLAWNARILPVRISMPDGRAYLSDMAKGIRWAADNGARIANISYGGAESLTVQSAANYMRSKGGVVVMSAGNSGGLNNFPASNAIIVASATDSKDARASWSSYGPYVDVAAPGVSIYTTIRGGGYGYVSGTSFSSPIVAAAAALLFSINPDLAPTDIDQMLTATAQDLGNAGYDQYYGHGRINAASAVNAAHARISVDRTAPLISIASPTGGTVSGSVPVDVNYSDNKGVVRVDLYVNGRKTIEDTQPPFAFAWDTTTLANGSYTLVAYAFDAAGNQGTSSTVNVTVKNTVADTTPPTISITSPAGGAVVLGSVPVNVNSSDNIGVVRTELHVNGKKVMEGTGSSFVWDTKSLADGNYTLVAYAFDAAGNQGASSPVAVSVKNTGTTTNTEPLPQINSFNLRDGQNVSRNQNIRVTADRNTRKINLKINGGIIAAANGNSLSYRWNTSAIPKNSNITVTAEAFNAKGDATSRTVTVRN | failed
